From patent US20170022281A1 (AbbVie / Abbott, published 2017)
Numbering of substitutions follows the chain as printed.

Key:
[1] = target: cyno PRLR on Baf3-cyPRLR cells (cyno); assay: cell-based or functional assay
human PRLR on cells = target: T1, human PRLR on cells (human, UniProt P16471 25-622); assay: cell-based or functional assay
T1 sequence: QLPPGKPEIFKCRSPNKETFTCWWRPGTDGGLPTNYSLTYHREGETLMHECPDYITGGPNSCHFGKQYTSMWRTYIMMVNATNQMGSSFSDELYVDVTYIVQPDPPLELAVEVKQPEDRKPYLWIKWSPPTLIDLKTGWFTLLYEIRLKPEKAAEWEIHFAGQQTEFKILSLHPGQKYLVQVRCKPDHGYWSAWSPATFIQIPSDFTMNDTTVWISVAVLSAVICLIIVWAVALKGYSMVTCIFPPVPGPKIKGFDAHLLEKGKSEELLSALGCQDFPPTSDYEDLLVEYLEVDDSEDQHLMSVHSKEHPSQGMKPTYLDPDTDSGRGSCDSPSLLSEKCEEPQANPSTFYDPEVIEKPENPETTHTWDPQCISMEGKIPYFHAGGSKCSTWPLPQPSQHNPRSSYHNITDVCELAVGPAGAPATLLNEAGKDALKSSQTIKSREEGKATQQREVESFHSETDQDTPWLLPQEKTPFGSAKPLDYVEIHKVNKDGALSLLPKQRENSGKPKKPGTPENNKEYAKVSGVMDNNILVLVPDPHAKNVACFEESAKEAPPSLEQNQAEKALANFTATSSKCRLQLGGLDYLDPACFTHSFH

[2] = target: T2, human PRLR ECD-Fc fusion protein (human, UniProt P16471 25-233); assay: ELISA on ECD
T2 construct: not shown: Fc region (captured by goat anti-human Fc)
T2 sequence: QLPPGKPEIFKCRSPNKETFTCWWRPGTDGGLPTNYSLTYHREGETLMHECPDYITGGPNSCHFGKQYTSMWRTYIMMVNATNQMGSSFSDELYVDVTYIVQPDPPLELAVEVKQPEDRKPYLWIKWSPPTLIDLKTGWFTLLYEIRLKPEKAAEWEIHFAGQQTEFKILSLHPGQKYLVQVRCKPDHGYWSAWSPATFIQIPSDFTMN
In short: (§1)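 EC50 values derive from fitted binding curves of antibody serial dilutions (1 h) on captured PRLR. Detection used an HRP-conjugated secondary (1 h), TMB development for 3–5 min, an H₂SO₄ stop and a 450 nm read, with all steps in Tween/PBS pH 7.4 buffer.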

[3] = target: T3, cyno PRLR ECD-his6 protein (cyno); assay: ELISA on ECD
T3 chain: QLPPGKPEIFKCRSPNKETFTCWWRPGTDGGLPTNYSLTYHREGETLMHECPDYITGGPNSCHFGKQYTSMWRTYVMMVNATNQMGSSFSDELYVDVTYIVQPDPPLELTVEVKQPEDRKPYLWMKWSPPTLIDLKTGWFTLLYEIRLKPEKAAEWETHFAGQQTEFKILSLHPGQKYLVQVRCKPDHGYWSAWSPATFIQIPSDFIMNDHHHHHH
In short: as §1

[4] = target: T4, human PRLR (Biacore antigen) (human, UniProt P16471 25-234, limits assumed); assay: SPR simultaneous binding; PRLR held by surface mAb chAb7
T4 construct: The construct injected over captured antibody is not described (a soluble form is likely); also called huPRLR
T4 sequence: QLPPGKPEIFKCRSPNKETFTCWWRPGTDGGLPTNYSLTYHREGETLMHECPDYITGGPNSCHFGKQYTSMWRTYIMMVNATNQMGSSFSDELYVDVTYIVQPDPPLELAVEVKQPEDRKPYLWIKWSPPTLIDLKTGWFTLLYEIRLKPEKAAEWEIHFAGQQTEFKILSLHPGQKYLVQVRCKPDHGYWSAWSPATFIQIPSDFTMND
Description: (§2) Running buffer was HBS-EP+ (10 mM Hepes, pH7.4, 150 mM NaCl, 3 mM EDTA, 0.05% surfactant). Assay was performed at 12° C. using Biacore T200 and CM5 sensor chips with anti-human IgG (Pierce) amine-coupled in all 4 flow cells to ˜2000 RU.
(§3) Separate test mAbs were captured in flowcells 2, 3 & 4 (flowcell 1 was reference, no test mAb). All 4 flowcells were then blocked by injection with isotype control mAb at 50 ug/ml. All 4 flowcells were then injected with antigen or buffer only (buffer only is for double referencing, done for each mAb pair individually). All 4 flowcells were then injected with 2nd test mAb at 10 ug/ml. All 4 flowcells were then regenerated with glycine, pH1.5.

[5] = target: T4, human PRLR (Biacore antigen); assay: SPR simultaneous binding; PRLR held by surface mAb Ab48
Description: as §2, §3

[6] = target: T4, human PRLR (Biacore antigen); assay: SPR simultaneous binding; PRLR held by surface mAb chAb5
Description: as §2, §3

[7] = target: T4, human PRLR (Biacore antigen); assay: SPR simultaneous binding; PRLR held by surface mAb LFA102
Description: as §2, §3

[8] = target: T4, human PRLR (Biacore antigen); assay: SPR simultaneous binding; PRLR held by surface mAb Ab49
Description: as §2, §3

[9] = target: T4, human PRLR (Biacore antigen); assay: SPR simultaneous binding; PRLR held by surface mAb Ab40
Description: as §2, §3

[10] = target: T4, human PRLR (Biacore antigen); assay: SPR simultaneous binding; PRLR held by surface mAb chAb8
Description: as §2, §3

B1: Ab6 (antibody, V domains shown)
VH: QVQLQQPGAELVMPGSSVKLSCKASGYTFTTYWMHWVKQRPGQGLEWIGEIDPSDSYSNYNQKFKDKATLTVDKSSSTAYMQLSSLTSEDSAVYYCARNGGLGPAWFSYWGQGTLVTVSA
VL: DIVMTQSQKFMSTTVGDRVSITCKASQYVGTAVAWYQQKPGQSPKLLIYSASNRYTGVPDRFTDSGSGTDFTLTISNLQSEDLADYFCQQYSSYPWTFGGGTKLEIK
notes: murine monoclonal, isotype G1; also called murine Ab6
Baf3-cyPRLR proliferation IC50 [1]: 0.44 µg/mL | Baf3-hPRLR proliferation IC50 (human PRLR on cells): 0.26 µg/mL | T47D pPRLR ELISA IC50 (human PRLR on cells): 0.039 µg/mL | EC50 [2]: 0.086 nM

B2: Ab12 (antibody, V domains shown)
VH: DVQLQESGPGLVKPSQSLSLTCTVTGYSITSDYAWNWIRQFPGNKLEWMGYIGYSGRTSFNPSLKSRISITRDTSKNQFFLQLNSVTTEDTATYYCARGGFAMDYWGQGTSVTVSS
VL: QIVLTQSPGIMSASPGEKVTMTCSASSSVTYMYWYQQKPRSSPKPWIYLTSNLASGVPARFSGSGSGTSYSLTISSMEAEDGATYYCQQWSSTPPLTFGGGTKLELN
notes: murine monoclonal, isotype G2a; reported as PRLR agonist; also called murine Ab12
Baf3-cyPRLR proliferation IC50 [1]: > 30 µg/mL | T47D pPRLR ELISA IC50 (human PRLR on cells): 0.538 µg/mL | EC50 [2]: 0.069 nM | EC50 [3]: < 4 nM

B3: Ab5 (antibody, V domains shown)
VH: QVQLQQPGAELVRPGTSVKLSCKASGYTFTSFWMHWVKQRPGQGLEWIGVIDPSDTYTNYNQKFKGKATLTVDTSSSTAYMQLSSLTSEDSAVYYCARGDYSNWFTYWGQGTLVTVSA
VL: DVVMTQTPLSLPVSLGDQASISCRSSQRLVHSNGNTYLHWYLQKPGQSPKLLIYKVSNRFSGVPDRFSGSGSGTDFTLKISRVEAEDLGVYFCSQSTHVPWTFGGGTKLEIK
notes: murine monoclonal, isotype G2a; also called murine Ab5
Baf3-cyPRLR proliferation IC50 [1]: 0.38 µg/mL | Baf3-hPRLR proliferation IC50 (human PRLR on cells): 0.24 µg/mL | T47D pPRLR ELISA IC50 (human PRLR on cells): 0.038 µg/mL | EC50 [2]: 0.071 nM | EC50 [3]: 0.095 nM

B4: Ab11 (antibody, V domains shown)
VH: EVKLVESGGGLVQPGGSLKLSCAASGFTFSDYYMFWVRQTPEKSLEWVAYISNGGGSTYYPDTVKGRFTISRDNAKNTLYLQMSRLKSEDTAMYYCSRQLFYYGSRGAMGYWGQGTSVTVSS
VL: B3 VL with V3L, R28S, L29I, H39E, F92Y, S94F, S96G, T97S, W101F, G105S
notes: murine monoclonal, isotype G1; also called murine Ab11
Baf3-cyPRLR proliferation IC50 [1]: 1.2 µg/mL | Baf3-hPRLR proliferation IC50 (human PRLR on cells): 1.11 µg/mL | T47D pPRLR ELISA IC50 (human PRLR on cells): 0.047 µg/mL | EC50 [2]: 0.093 nM | EC50 [3]: 0.153 nM

B5: Ab7 (antibody, V domains shown)
VH: QVQLQQPGAELVMPGTSVKLSCKASGYTFTSYWIHWVKQRPGQGLEWIGEIDPSDSYTNYNQKFKGKATLTVDRSSSTAYMQLSSLTSEDSAVYYCGRSFFTNWFAYWGQGTLVTVSA
VL: B3 VL with R28S, S81N, W101F, G105S
notes: murine monoclonal, isotype G1; also called murine Ab7
Baf3-cyPRLR proliferation IC50 [1]: 0.3 µg/mL | Baf3-hPRLR proliferation IC50 (human PRLR on cells): 0.28 µg/mL | T47D pPRLR ELISA IC50 (human PRLR on cells): 0.08 µg/mL | EC50 [2]: 0.098 nM | EC50 [3]: 0.202 nM

B6: Ab13 (antibody, V domains shown)
VH: B3 VH with T56S, Y57H, D73N, Q82H
VL: B3 VL with L9F, R28S, G89E, V90L
notes: murine monoclonal, isotype G2a; also called murine Ab13
Baf3-cyPRLR proliferation IC50 [1]: 0.85 µg/mL | Baf3-hPRLR proliferation IC50 (human PRLR on cells): 0.32 µg/mL | T47D pPRLR ELISA IC50 (human PRLR on cells): 0.047 µg/mL | EC50 [2]: 0.07 nM | EC50 [3]: 0.143 nM

B7: Ab39 (antibody, human IgG1, kappa, V domains shown)
VH: EVQLVQSGAEVKKPGSSVKVSCKASGYTFTSYWIHWVRQAPGQGLEWIGEIDPSDSYTNYNQKFKGRATLTVDKSSSTAYMELSSLRSEDTAVYYCARSFFTNWFAYWGQGTLVTVSS
VL: DVVMTQTPLSLSVTPGQPASISCRSSQSLVHSNGNTYLHWYLQKPGQSPQLLIYKVSNRFSGVPDRFSGSGSGTDFTLKISRVEAEDVGVYFCSQSTHVPFTFGGGTKVEIKR
notes: humanized from Ab7; G1; also called Ab4 HC.1a and Ab4 LC.1a
solution mAb binding, % of PRLR binding [4]: 1% | Baf3-cyPRLR proliferation IC50 [1]: 0.25 µg/mL | Baf3-hPRLR proliferation IC50 (human PRLR on cells): 0.27 µg/mL | solution mAb binding, % of PRLR binding [5]: 2% | solution mAb binding, % of PRLR binding [6]: 0% | solution mAb binding, % of PRLR binding [7]: 92% | EC50 [2]: 0.18 nM | EC50 [3]: 0.46 nM | solution mAb binding, % of PRLR binding [8]: 2% | solution mAb binding, % of PRLR binding [9]: -2% | solution mAb binding, % of PRLR binding [10]: 1%

B8: Ab30 (antibody, human IgG1, kappa, V domains shown)
VH: B7 VH with Y32F, I34M, E50V, S56T, K74E, S99G, F100D, F101Y, T102S, A106T
VL: B7 VL with S28R, F101W
notes: humanized from Ab5; G1; also called Ab2 HC.1a and Ab2 LC.1a
solution mAb binding, % of PRLR binding [4]: 0% | Baf3-cyPRLR proliferation IC50 [1]: 0.24 µg/mL | Baf3-hPRLR proliferation IC50 (human PRLR on cells): 0.14 µg/mL | solution mAb binding, % of PRLR binding [5]: 6% | solution mAb binding, % of PRLR binding [6]: 0% | solution mAb binding, % of PRLR binding [7]: 103% | EC50 [2]: 0.221 nM | EC50 [3]: 0.1 nM | solution mAb binding, % of PRLR binding [8]: 6% | solution mAb binding, % of PRLR binding [9]: -2% | solution mAb binding, % of PRLR binding [10]: 6%

B9: Ab40 (antibody, human IgG1, kappa)
heavy: not shown
light: DVVMTQTPLSLSVTPGQPASISCRSSQSLVHSNGNTYLHWYLQKPGQSPQLLIYKVSNRFSGVPDRFSGSGSGTDFTLKISRVEAEDVGVYYCSQSTHVPFTFGGGTKVEIKRTVAAPSVFIFPPSDEQLKSGTASVVCLLNNFYPREAKVQWKVDNALQSGNSQESVTEQDSKDSTYSLSSTLTLSKADYEKHKVYACEVTHQGLSSPVTKSFNRGEC
notes: humanized from Ab7; G1; also called Ab4 HC.1a and Ab4 LC.1b
solution mAb binding, % of PRLR binding [4]: 1% | Baf3-cyPRLR proliferation IC50 [1]: 0.32 µg/mL | Baf3-hPRLR proliferation IC50 (human PRLR on cells): 0.4 µg/mL | solution mAb binding, % of PRLR binding [5]: 0% | solution mAb binding, % of PRLR binding [6]: 0% | solution mAb binding, % of PRLR binding [7]: 35% | EC50 [2]: 4.41 nM | EC50 [3]: 0.862 nM | solution mAb binding, % of PRLR binding [8]: 0% | solution mAb binding, % of PRLR binding [9]: -2% | solution mAb binding, % of PRLR binding [10]: 0%

B10: Ab10 (antibody, V domains shown)
VH: EVQLHQSGPELVKPGASVKISCKASGYTFTDYNMHWMKQSHGKSLEWIGYFYPYNGGTGYNQEFKNKATLTVDISSSTAYMELRRLTSEDSAVYYCARGGWGIYYAMDYWGQGTSVTVSS
VL: DIQMTQSPASLSASVGETVTITCRASENIYSYLTWYQQKQGKSPQLLVYNAKTLAEGVPSRFSGSGSGTQFSLKINSLQPEDFGSYHCQHHSVTPLTFGAGTKLELK
notes: murine monoclonal, isotype G2a; also called murine Ab10
Baf3-cyPRLR proliferation IC50 [1]: > 10 µg/mL | Baf3-hPRLR proliferation IC50 (human PRLR on cells): 3.14 µg/mL | T47D pPRLR ELISA IC50 (human PRLR on cells): 0.362 µg/mL | EC50 [2]: 0.147 nM
